{"source": "paper doi:10.64898/2025.12.09.693204", "about": "(bioRxiv, 2025)", "binders": {"B1": {"name": "Homo sapiens NUP98 FG domain (residues 1-505, GLEBS domain residues 157-213 excluded) (domain or fragment, UniProt P52948 1-505, looked up)", "chain": "MFNKSFGTPFGGGTGGFGTTSTFGQNTGFGTTSGGAFGTSAFGSSNNTGGLFGNSQTKPGGLFGTSSFSQPATSTSTGFGFGTSTGTANTLFGTASTGTSLFSSQNNAFAQNKPTGFGNFGTSTSSGGLFGTTNTTSNPFGSTSGSLFGPSSFTAAGPQNQVGAGTTTGLFGSSPATSSATGLFSSSTTNSGFAYGQNKTAFGTSTTGFGTNPGGLFGQQNQQTTSLFSKPFGQATTTQNTGFSFGNTSTIGQPSTNTMGLFGVTQASQPGGLFGTATNTSTGTAFGTGTGLFGQTNTGFGAVGSTLFGNNKLTTFGSSTTSAPSFGTTSGGLFGNKPTLTLGTNTNTSNFGFGTNTSGNSIFGSKPAPGTLGTGLGAGFGTALGAGQASLFGNNQPKIGGPLGTGAFGAPGFNTTTATLGFGAPQAPVALTDPNASAAQQAVLQQHI"}}, "target": "Homo sapiens importin-β (Homo sapiens, UniProt Q14974 1-876)", "sequence (Q14974 whole entry)": "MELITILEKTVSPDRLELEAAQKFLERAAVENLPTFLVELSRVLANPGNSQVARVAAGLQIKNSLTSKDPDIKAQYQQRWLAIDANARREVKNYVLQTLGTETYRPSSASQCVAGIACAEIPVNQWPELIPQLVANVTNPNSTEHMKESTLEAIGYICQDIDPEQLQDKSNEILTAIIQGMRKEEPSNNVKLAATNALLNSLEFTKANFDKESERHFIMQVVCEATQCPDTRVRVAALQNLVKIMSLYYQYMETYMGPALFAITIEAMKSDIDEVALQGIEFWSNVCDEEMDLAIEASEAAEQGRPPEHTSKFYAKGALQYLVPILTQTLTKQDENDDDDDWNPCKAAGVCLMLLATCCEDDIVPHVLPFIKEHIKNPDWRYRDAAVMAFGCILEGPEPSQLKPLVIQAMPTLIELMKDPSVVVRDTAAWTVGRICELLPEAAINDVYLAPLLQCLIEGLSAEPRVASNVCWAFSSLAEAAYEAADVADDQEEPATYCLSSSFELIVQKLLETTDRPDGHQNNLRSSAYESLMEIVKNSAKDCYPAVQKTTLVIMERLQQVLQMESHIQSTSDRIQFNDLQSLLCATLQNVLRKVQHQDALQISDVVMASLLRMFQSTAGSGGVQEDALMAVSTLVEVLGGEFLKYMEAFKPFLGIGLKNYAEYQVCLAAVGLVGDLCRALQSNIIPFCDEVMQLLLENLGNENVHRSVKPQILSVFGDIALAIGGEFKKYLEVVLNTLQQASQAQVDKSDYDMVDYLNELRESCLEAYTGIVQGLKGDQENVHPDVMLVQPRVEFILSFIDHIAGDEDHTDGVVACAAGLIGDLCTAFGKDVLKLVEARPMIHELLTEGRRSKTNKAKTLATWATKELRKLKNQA", "test": "partitioning into phase-separated condensates"}
{"binder": "B1", "values": [{"measurement": "binding result", "result": "binds"}]}
